According to patent US5871901:

Columns and labels:
[1] = system: DP-1/E2F-1 + orf 6/7 (in SL2 cells) (Mus musculus? / Homo sapiens? / adenovirus type 5); assay: cell_activity; details: enhancement by orf 6/7 over DP-1/E2F-1
[2] = biological target: DP-1/E2F-1 heterodimer (murine)

| Substance | activity [1] [fold] | transcriptional activity of the adenovirus E2a promoter (pE2a CAT reporter, SL2 cells) [2] [fold] |
| --- | --- | --- |
| E2a promoter (-96 to +68), two E2F sites | 2 | – |
| Ad5 orf 6/7 protein expressed from pE4 (complete Ad5 orf 6/7 cDNA) | – | 2 |
